This is an account of results in paper PMC12578283 (Protein & Cell, 2025).

“And” between values parts separate entries of the source, which are not always exact repeats. Identical values can stand only once.

Assay [1] addresses p15 protein of African swine fever virus (African swine fever virus) (UniProt Q65179). The assay can be described thus: cryo-EM structure.
In assay [2] the target is p15 protein of African swine fever virus (African swine fever virus, UniProt Q65179). As to the kind of experiment: SPR. The settings on record: both partners purified.
For assay [3], the target named is T1, p15 protein of African swine fever virus (African swine fever virus, UniProt Q65179 1-158).
T1 chain: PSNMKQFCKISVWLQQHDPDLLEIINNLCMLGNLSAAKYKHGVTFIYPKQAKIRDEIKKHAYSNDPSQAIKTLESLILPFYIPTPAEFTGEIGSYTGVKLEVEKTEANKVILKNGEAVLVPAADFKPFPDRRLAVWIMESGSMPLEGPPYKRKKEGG
The assay can be described thus: SPR. A general note: Surface plasmon resonance follows binding to a sensor surface in real time, without labels.

What is called stoichiometry N is the number of molecules, sites or subunits per partner or assembly. “p15 protein of African swine fever virus (from UniProt Q65179 1-158) (natural protein)”: in assay [1], the stoichiometry N is 3 and 6.

B1: monoclonal antibody 4E2 (antibody, V domains shown)
VH: QVQLHQPGSVLVRPGASVKLSCKASGYTFTSSWMHWAKQRPGQGLEWIGEIHPKSGNTNYNENFKGKATLTVDTSSSTAYVDLSSLASEDSAVYYCARSGGTYYYAMDSWGQGTSVTVSS
VL: DIQMTQTTSSLSASLGDRVTISCRASQDTSNYLNWYQQKPDGTVKLLIYYTSRLHSGVPSRFSGSGSGTDFSLTINTLEQEDFATYFCQQGNTSPYTFGGGTKLEIK
A word on the Kd: it is a measure of binding affinity in units of concentration. What is called koff is the rate constant with which the complex falls apart. The low end stands for slow dissociation, the high end for fast dissociation. Take B1: the Kd in assay [2] was 6.39 nM. The molecule also displayed a koff in assay [3] of 0.000503 s⁻¹.
